In patent US20110307974A1:

T1: APC10 (AT2G18290) fused at its N-terminus with the traditional TAP tag or with the GS tag (Arabidopsis thaliana) (UniProt Q9ZPW2)
T1 sequence: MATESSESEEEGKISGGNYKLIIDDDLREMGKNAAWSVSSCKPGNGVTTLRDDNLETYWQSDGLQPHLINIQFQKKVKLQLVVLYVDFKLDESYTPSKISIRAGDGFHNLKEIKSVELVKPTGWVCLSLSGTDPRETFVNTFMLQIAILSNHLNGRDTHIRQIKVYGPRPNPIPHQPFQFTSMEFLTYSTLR


Molecular target: T1, APC10 (AT2G18290) fused at its N-terminus with the traditional TAP tag or with the GS tag (Arabidopsis thaliana)
Experiment: TAP purification with tagged APC10 as bait from Arabidopsis cell suspension culture, MALDI-TOF/TOF MS identification

| Found/6 exp (of 6 experiments) | Molecule |
| --- | --- |
| 6 | APC1 (AT5G05560) (from UniProt Q9FFF9 1-1678) |
| 3 | APC2 (AT2G04660) (from UniProt Q8H1U5 1-865) |
| 6 | APC4 (AT4G21530) (from UniProt O65418 1-777) |
| 6 | APC5 (AT1G06590) (from UniProt Q8H1U4 1-916) |
| 6 | APC7 (AT2G39090) (from UniProt Q8VY89 1-558) |
| 6 | APC8 (AT3G48150) (from UniProt Q9STS3 1-579) |
| 1 | CCS52B (AT5G13840) (from UniProt Q8LPL5 1-481) |
| 6 | CDC16 (AT1G78770) (from UniProt B3DNN5 1-543) |
| 4 | CDC27a (AT3G16320) (from UniProt Q06AN9 1-717) |
| 6 | CDC27b (AT2G20000) (from UniProt Q8LGU6 1-744) |
| 1 | CDKA; 1 (AT3G48750) (from UniProt P24100 1-294) (enzyme) |
| 2 | RNase L inhibitor protein, putative (AT4G19210) (from UniProt Q8LPJ4 1-605) |
| 3 | UVI4 (AT2G42260) (from UniProt O48533 1-259) |
| 2 | UVI4-like (AT3G57860) (from UniProt Q9M2R1 1-243) |
| 1 | eukaryotic translation initiation factor 3 subunit 8 (AT3G56150) (from UniProt O49160 1-900) |
| 2 | expressed protein (AT4G25550) (from UniProt Q8GXS3 1-200) |
| 1 | phosphoprotein-related (ELF8) (AT2G06210) (from UniProt B5X0I6 2-1091) |
| 4 | SAMBA (AT1G32310) (protein) MNGASPAHSLVSTTAVAGGGGSSGAAAGLDDFHFPPDIPSMQERKDEAMRVLKADLMTELDKEVKSLEEDSWMFEGPRSRIHLISRRGNFLKKGGEVKLW |
